Measurements taken from publication PMC11098746 (2024).
No end group written: not given here.

B1: ADP133 (protein)
chain: MAPLRPLLILALLAWVALADQESCKGRCTEGFNVDKKCQCDELCSYYQSCCTDYTAECKPQVTRGDVFTMPEDEYTVYDDGEEKNNATVHEQVGGPSLTSDLQAQSKGNPEQTPVLKPEEEAPAPEVGASKPEGIDSRPETLHPGRPQPPAEEELCSGKPFDAFTDLKNGSLFAFRGQYCYELDEKAVRPGYPKLIRDVWGIEGPIDAAFTRINCQGKTYLFKGSQYWRFEDGVLDPDYPRNISDGFDGIPDNVDAALALPAHSYSGRERVYFFKGKQYWEYQFQHQPSQEECEGSSLSAVFEHFAMMQRDSWEDIFELLFWGRTSAGTRQPQFISRDWHGVPGQVDAAMAGRIYISGMAPRPSLAKKQRFRHRNRKGYRSQRGHSRGRNQNSRRPSRATWLSLFSSEESNLGANNYDDYRMDWLVPATCEPIQSVFFFSGDKYYRVNLRTRRVDTVDPPYPRSIAQYWLGCPAPGHL
modifications: bait human Fc-tagged dimer
B2: ADP316 (protein)
chain: MAAAGAAVARSPGIGAGPALRARRSPPPRAARLPRLLVLLAAAAVGPGAGGAARLYRAGEDAVWVLDSGSVRGATANSSAAWLVQFYSSWCGHCIGYAPTWRALAGDVRDWASAIRVAALDCMEEKNQAVCHDYDIHFYPTFRYFKAFTKEFTTGENFKGPDRELRTVRQTMIDFLQNHTEGSRPPACPRLDPIQPSDVLSLLDNRGSHYVAIVFESNSSYLGREVILDLIPYESIVVTRALDGDKAFLEKLGVSSVPSCYLIYPNGSHGLINVVKPLRAFFSSYLKSLPDVRKKSLPLPEKPHKEENSEIVVWREFDKSKLYTVDLESGLHYLLRVELAAHKSLAGAELKTLKDFVTVLAKLFPGRPPVKKLLEMLQEWLASLPLDRIPYNAVLDLVNNKMRISGIFLTNHIKWVGCQGSRSELRGYPCSLWKLFHTLTVEASTHPDALVGTGFEDDPQAVLQTMRRYVHTFFGCKECGEHFEEMAKESMDSVKTPDQAILWLWKKHNMVNGRLAGHLSEDPRFPKLQWPTPDLCPACHEEIKGLASWDEGHVLTFLKQHYGRDNLLDTYSADQGDSSEGGTLARGEEEEKRLTPPEVSHGDRDTQSVRPPGALGPRPALPESLHHSLDGKLQSLDGPGAHKEVGGAAPFLGVDFSSLDM
modifications: bait human Fc-tagged dimer
B3: ADP273 (protein)
chain: RGSCQACGDSVLVVSEDVNYEPDLDFHQGRLYWSDLQAMFLQFLGEGRLEDTIRQTSLRERVAGSAGMAALTQDIRAALSRQKLDHVWTDTHYVGLQFPDPAHPNTLHWVDEAGKVGEQLPLEDPDVYCPYSAIGNVTGELVYAHYGRPEDLQDLRARGVDPVGRLLLVRVGVISFAQKVTNAQDFGAQGVLIYPEPADFSQDPPKPSLSSQQAVYGHVHLGTGDPYTPGFPSFNQTQFPPVASSGLPSIPAQPISADIASRLLRKLKGPVAPQEWQGSLLGSPYHLGPGPRLRLVVNNHRTSTPINNIFGCIEGRSEPDHYVVIGAQRDAWGPGAAKSAVGTAILLELVRTFSSMVSNGFRPRRSLLFISWDGGDFGSVGSTEWLEGYLSVLHLKAVVYVSLDNAVLGDDKFHAKTSPLLTSLIESVLKQVDSPNHSGQTLYEQVVFTNPSWDAEVIRPLPMDSSAYSFTAFVGVPAVEFSFMEDDQAYPFLHTKEDTYENLHKVLQGRLPAVAQAVAQLAGQLLIRLSHDRLLPLDFGRYGDVVLRHIGNLNEFSGDLKARGLTLQWVYSARGDYIRAAEKLRQEIYSSEERDERLTRMYNVRIMRVEFYFLSQYVSPADSPFRHIFMGRGDHTLGALLDHLRLLRSNSSGTPGATSSTGFQESRFRRQLALLTWTLQGAANALSGDVWNIDNNF
modifications: bait human Fc-tagged dimer
B4: ADP359 (protein)
chain: MAAEWASRFWLWATLLIPAAAVYEDQVGKFDWRQQYVGKVKFASLEFSPGSKKLVVATEKNVIAALNSRTGEILWRHVDKGTAEGAVDAMLLHGQDVITVSNGGRIMRSWETNIGGLNWEITLDSGSFQALGLVGLQESVRYIAVLKKTTLALHHLSSGHLKWVEHLPESDSIHYQMVYSYGSGVVWALGVVPFSHVNIVKFNVEDGEIVQQVRVSTPWLQHLSGACGVVDEAVLVCPDPSSRSLQTLALETEWELRQIPLQSLDLEFGSGFQPRVLPTQPNPVDASRAQFFLHLSPSHYALLQYHYGTLSLLKNFPQTALVSFATTGEKTVAAVMACRNEVQKSSSSEDGSMGSFSEKSSSKDSLACFNQTYTINLYLVETGRRLLDTTITFSLEQSGTRPERLYIQVFLKKDDSVGYRALVQTEDHLLLFLQQLAGKVVLWSREESLAEVVCLEMVDLPLTGAQAELEGEFGKKADGLLGMFLKRLSSQLILLQAWTSHLWKMFYDARKPRSQIKNEINIDTLARDEFNLQKMMVMVTASGKLFGIESSSGTILWKQYLPNVKPDSSFKLMVQRTTAHFPHPPQCTLLVKDKESGMSSLYVFNPIFGKWSQVAPPVLKRPILQSLLLPVMDQDYAKVLLLIDDEYKVTAFPATRNVLRQLHELAPSIFFYLVDAEQGRLCGYRLRKDLTTELSWELTIPPEVQRIVKVKGKRSSEHVHSQGRVMGDRSVLYKSLNPNLLAVVTESTDAHHERTFIGIFLIDGVTGRIIHSSVQKKAKGPVHIVHSENWVVYQYWNTKARRNEFTVLELYEGTEQYNATAFSSLDRPQLPQVLQQSYIFPSSISAMEATITERGITSRHLLIGLPSGAILSLPKALLDPRRPEIPTEQSREENLIPYSPDVQIHAERFINYNQTVSRMRGIYTAPSGLESTCLVVAYGLDIYQTRVYPS
modifications: bait human Fc-tagged dimer
B5: ADP154 (protein)
chain: MAGKWLLCMLLVLGTAIVEAHDGHDDDVIDIEDDLDDVIEEVEDSKPDTTAPPSSPKVTYKAPVPTGEVYFADSFDRGTLSGWILSKAKKDDTDDEIAKYDGKWEVEEMKESKLPGDKGLVLMSRAKHHAISAKLNKPFLFDTKPLIVQYEVNFQNGIECGGAYVKLLSKTPELNLDQFHDKTPYTIMFGPDKCGEDYKLHFIFRHKNPKTGIYEEKHAKRPDADLKTYFTDKKTHLYTLILNPDNSFEILVDQSVVNSGNLLNDMTPPVNPSREIEDPEDRKPEDWDERPKIPDPEAVKPDDWDEDAPAKIPDEEATKPEGWLDDEPEYVPDPDAEKPEDWDEDMDGEWEAPQIANPRCESAPGCGVWQRPVIDNPNYKGKWKPPMIDNPSYQGIWKPRKIPNPDFFEDLEPFRMTPFSAIGLELWSMTSDIFFDNFIICADRRIVDDWANDGWGLKKAADGAAEPGVVGQMIEAAEERP
modifications: bait human Fc-tagged dimer
B6: ADP104 (protein)
chain: MEPPDAPAQARGAPRLLLLAVLLAAHPDAQAEVRLSVPPLVEVMRGKSVILDCTPTGTHDHYMLEWFLTDRSGARPRLASAEMQGSELQVTMHDTRGRSPPYQLDSQGRLVLAEAQVGDERDYVCVVRAGAAGTAEATARLNVFAKPEATEVSPNKGTLSVMEDSAQEIATCNSRNGNPAPKITWYRNGQRLEVPVEMNPEGYMTSRTVREASGLLSLTSTLYLRLRKDDRDASFHCAAHYSLPEGRHGRLDSPTFHLTLHYPTEHVQFWVGSPSTPAGWVREGDTVQLLCRGDGSPSPEYTLFRLQDEQEEVLNVNLEGNLTLEGVTRGQSGTYGCRVEDYDAADDVQLSKTLELRVAYLDPLELSEGKVLSLPLNSSAVVNCSVHGLPTPALRWTKDSTPLGDGPMLSLSSITFDSNGTYVCEASLPTVPVLSRTQNFTLLVQGSPELKTAEIEPKADGSWREGDEVTLICSARGHPDPKLSWSQLGGSPAEPIPGRQGWVSSSLTLKVTSALSRDGISCEASNPHGNKRHVFHFGTVSPQTSQAG
modifications: bait human Fc-tagged dimer
B7: ADP147 (protein)
chain: MAACGRVRRMFRLSAALHLLLLFAAGAEKLPGQGVHSQGQGPGANFVSFVGQAGGGGPAGQQLPQLPQSSQLQQQQQQQQQQQQPQPPQPPFPAGGPPARRGGAGAGGGWKLAEEESCREDVTRVCPKHTWSNNLAVLECLQDVREPENEISSDCNHLLWNYKLNLTTDPKFESVAREVCKSTITEIKECADEPVGKGYMVSCLVDHRGNITEYQCHQYITKMTAIIFSDYRLICGFMDDCKNDINILKCGSIRLGEKDAHSQGEVVSCLEKGLVKEAEEREPKIQVSELCKKAILRVAELSSDDFHLDRHLYFACRDDRERFCENTQAGEGRVYKCLFNHKFEESMSEKCREALTTRQKLIAQDYKVSYSLAKSCKSDLKKYRCNVENLPRSREARLSYLLMCLESAVHRGRQVSSECQGEMLDYRRMLMEDFSLSPEIILSCRGEIEHHCSGLHRKGRTLHCLMKVVRGEKGNLGMNCQQALQTLIQETDPGADYRIDRALNEACESVIQTACKHIRSGDPMILSCLMEHLYTEKMVEDCEHRLLELQYFISRDWKLDPVLYRKCQGDASRLCHTHGWNETSEFMPQGAVFSCLYRHAYRTEEQGRRLSRECRAEVQRILHQRAMDVKLDPALQDKCLIDLGKWCSEKTETGQELECLQDHLDDLVVECRDIVGNLTELESEDIQIEALLMRACEPIIQNFCHDVADNQIDSGDLMECLIQNKHQKDMNEKCAIGVTHFQLVQMKDFRFSYKFKMACKEDVLKLCPNIKKKVDVVICLSTTVRNDTLQEAKEHRVSLKCRRQLRVEELEMTEDIRLEPDLYEACKSDIKNFCSAVQYGNAQIIECLKENKKQLSTRCHQKVFKLQETEMMDPELDYTLMRVCKQMIKRFCPEADSKTMLQCLKQNKNSELMDPKCKQMITKRQITQNTDYRLNPMLRKACKADIPKFCHGILTKAKDDSELEGQVISCLKLRYADQRLSSDCEDQIRIIIQESALDYRLDPQLQLHCSDEISSLCAEEAAAQEQTGQVEECLKVNLLKIKTELCKKEVLNMLKESKADIFVDPVLHTACALDIKHHCAAITPGRGRQMSCLMEALEDKRVRLQPECKKRLNDRIEMWSYAAKVAPADGFSDLAMQVMTSPS
modifications: bait human Fc-tagged dimer
B8: ADP302 (protein)
chain: MAAWKSWTALRLCATVVVLDMVVCKGFVEDLDESFKENRNDDIWLVDFYAPWCGHCKKLEPIWNEVGLEMKSIGSPVKVGKMDATSYSSIASEFGVRGYPTIKLLKGDLAYNYRGPRTKDDIIEFAHRVSGALIRPLPSQQMFEHMQKRHRVFFVYVGGESPLKEKYIDAASELIVYTYFFSASEEVVPEYVTLKEMPAVLVFKDETYFVYDEYEDGDLSSWINRERFQNYLAMDGFLLYELGDTGKLVALAVIDEKNTSVEHTRLKSIIQEVARDYRDLFHRDFQFGHMDGNDYINTLLMDELTVPTVVVLNTSNQQYFLLDRQIKNVEDMVQFINNILDGTVEAQGGDSILQRLKRIVFDAKSTIVSIFKSSP
modifications: bait human Fc-tagged dimer
B9: ADP333 (protein)
chain: MASVVLPSGSQCAAAAAAAAPPGLRLRLLLLLFSAAALIPTGDGQNLFTKDVTVIEGEVATISCQVNKSDDSVIQLLNPNRQTIYFRDFRPLKDSRFQLLNFSSSELKVSLTNVSISDEGRYFCQLYTDPPQESYTTITVLVPPRNLMIDIQKDTAVEGEEIEVNCTAMASKPATTIRWFKGNTELKGKSEVEEWSDMYTVTSQLMLKVHKEDDGVPVICQVEHPAVTGNLQTQRYLEVQYKPQVHIQMTYPLQGLTREGDALELTCEAIGKPQPVMVTWVRVDDEMPQHAVLSGPNLFINNLNKTDNGTYRCEASNIVGKAHSDYMLYVYDPPTTIPPPTT
modifications: bait human Fc-tagged dimer

molecular target: Circumsporozoite protein (CSP) (Plasmodium falciparum (isolate 3D7), UniProt Q7K740); test: AVEXIS screen signal:noise (double-corrected)
Sequence (Q7K740 19-374): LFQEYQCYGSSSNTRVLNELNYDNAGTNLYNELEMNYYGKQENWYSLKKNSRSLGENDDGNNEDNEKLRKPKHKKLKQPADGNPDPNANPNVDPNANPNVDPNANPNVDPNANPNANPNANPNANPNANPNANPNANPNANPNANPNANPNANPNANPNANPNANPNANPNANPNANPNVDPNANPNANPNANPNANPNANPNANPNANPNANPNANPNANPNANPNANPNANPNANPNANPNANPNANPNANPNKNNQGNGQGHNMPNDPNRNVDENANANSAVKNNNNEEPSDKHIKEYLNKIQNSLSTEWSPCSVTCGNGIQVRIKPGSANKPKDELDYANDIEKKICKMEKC

Row | Binder | binding score
1 | B1 | 1.13
2 | MASLGHILVFCVGLLTMAKAESPKEHDPFTYDYQS (also: human Fc-tagged dimer) [ADP327] | 1.89
3 | B2 | 1.06
4 | B3 | 0.72
5 | B4 | 0.432
6 | B5 | 0.77
7 | B6 | 1.08
8 | B7 | 0.989
9 | B8 | 1.19
10 | B9 | 1.11
